Three molecules from paper PMC8096248 can be followed below.

In one series the target is PolD (DP1-DP2);PCNA1 (Thermococcus kodakarensis;Thermococcus …, UniProt Q5JET1;Q5JET0;Q5JET0;Q5JF32 1-735;1-963;1438-1798;1-249, |). The series is described as follows: gel filtration. (In gel filtration, larger molecules generally elute earlier.)
In the next series the target is PolD cPIP mutant;PCNA1 (Thermococcus kodakarensis;Thermococcus …, UniProt Q5JET1;Q5JET0;Q5JF32 1-735;1-963+1438-1798;1-249, L1792A;F1795A;F1796A;internal_change|). The experiment in a line: gel filtration.
Series [1] concerns the target family-D DNA polymerase (PolD), DP1–DP2 complex, T. kodakarensis, recombinant wild type (Thermococcus kodakarensis) (UniProt Q5JET0). The series is described as follows: SPR. (In general: Surface plasmon resonance follows binding to a sensor surface in real time, without labels.)

B1: primed DNA d29/d45 (dsDNA)
DNA 1: GGTACCGGGCCCCCCCTCGAGGTCGACGG
DNA 2: ATCAAGCTTATCGATACCGTCGACCTCGAGGGGGGGCCCGGTACC
modifications: 3'-OH of d29 replaced by NH2
Take B1: the binding result in the series with PolD (DP1-DP2);PCNA1 and with PolD cPIP mutant;PCNA1 was “binds” throughout.

B2: PriS, small subunit of primase, T. kodakarensis, recombinant (natural protein)
chain: MSKLLREVTPEERRLYYSGEWDAKKLPEFIVESIERREFGFDHTGEGPSDRKNAFSDVRDLEDYIRATAPYAAYSSVAFYRNPQEMEGWLGAELVFDIDAKDLPLRRCQNEHPSGQVCPICLEDAKELARDTLIILKEDFGFENIHVVYSGRGYHIRVIDEWALKLDSKARERILSYVSAAEEVTFDDIQKRYIMLSSGYFRVFRLRFGYFIQRINENHLKNIGLKRSTAEKLLDEKTRQDIVEKFVNKGLLAAFPEGVGYRTLLRLFGLSTTFSKAYFDGRVTVDLKRILRLPSTLHSKVGLVATYIGSDEKRLEKFDPFKDAVPEFRKEEVQKAYQEWKELHEG
As to B2, in series [1], the Kd (commonly the equilibrium constant for the complex coming apart) is 1400 nM.

B3: PriL, large subunit of primase, T. kodakarensis, recombinant (natural protein)
chain: MLDPFGKRAESLIREEFGDLLALLERVPSAISVEEPISLVSWMLESENPPQELVEVDNLEELRDLFKFYALLGAASISPYGLEAEVVKRATLRLYSERIKASKNLSETMLPVVPVGENEIPHNDLNILERRMDRNLSPEEKEKLKIKYKIPIKDLLNLWGSSLKEVYIRNGYAYLRWETALKMWEKAFEKRFERAVNILYEYRDELPEFYHRLREKLEEIAEEYFKERGEMFKGTASPLRFDLFPPCVKEALKGVPAGMRNYAITVLLTSFLSYARICPNPPKKDVRIKDCINDLKIIEEEILPVIIEAGNRCKPPLFEDQPHEIKNIWYHLGFGLTDSPTMEDSGNSTWYFPPNCDKIRANAPQLCKPDKYCRGIKNPLSYYLKRLYLEGKKKEGETSE
Turning to B3, in series [1], the Kd is 160 nM.
